This passage reports Titre of GaLV vectors on EGF-R positive cells, MDBK, +Xa (displayed EGF domain cleaved with factor Xa before infection) and Titre of GaLV vectors on EGF-R positive cells, MDBK, -Xa results from patent US20040253214A1.

This assay has as its target bovine EGF receptor on MDBK cells (bovine) (UniProt F1N7F3). Nature of the assay: cell-based or functional assay.

As for “EXGaLVMoT chimeric envelope (EGF displayed through a factor Xa-cleavable linker as an N-terminal extension of the Gibbon Ape Leukaemia virus SU glycoprotein), on retroviral vector particles (from UniProt P01133 971-1023; P21415 43-653; P03385 633-665)”, the Titre of GaLV vectors on EGF-R positive cells, MDBK, +Xa (displayed EGF domain cleaved with factor Xa before infection) was found to be 12 efu/ml and the Titre of GaLV vectors on EGF-R positive cells, MDBK, -Xa is < 1 efu/ml.
